Laboratory results from patent US7166454.

Molecular target: T1, peptide substrate KSEVNLDAEFRK derived from the sequence of Swedish amyloid precursor protein
T1 chain: KSEVNLDAEFRK

B1: β-secretase refolded from E. coli overexpression (protein)
chain: TQHGIRLPLRSGLGGAPLGLRLPRETDEEPEEPGRRGSFVEMVDNLRGKSGQGYYVEMTVGSPPQTLNILVDTGSSNFAVGAAPHPFLHRYYQRQLSSTYRDLRKGVYVPYTQGKWEGELGTDLVSIPHGPNVTVRANIAAITESDKFFINGSNWEGILGLAYAEIARPDDSLEPFFDSLVKQTHVPNLFSLQLCGAGFPLNQSEVLASVGGSMIIGGIDHSLYTGSLWYTPIRREWYYEVIIVRVEINGQDLKMDCKEYNYDKSIVDSGTTNLRLPKKVFEAAVKSIKAASSTEKFPDGFWLGEQLVCWQAGTTPWNIFPVISLYLMGEVTNQSFRITILPQQYLRPVEDVATSQDDCYKFAISQSSTGTVMGAVIMEGFYVVFDRARKRIGFAVSACHVHDEFRTAAVEGPFVTLDMEDCGYNIPQTDEST
  specificity constant (Kcat/Km): 1800 ± 100 M⁻¹ s⁻¹
